Where two headings read alike, the source gives them in different places.
Experiments:
[1] = target: CR8071 lambda light chain K129T_V133D (L1 of designs 3102 and 3109, system C); assay: SMCA LC-MS
[2] = target: CR8071 lambda light chain K129T_V133D (L1 of designs 3102 and 3109, system C); assay: SMCA LC-MS; remark: listed apart in the source
[3] = target: CR8071 lambda light chain K129T_V133D (L1 of designs 3102 and 3109, system C); assay: SMCA LC-MS; remark: listed apart in the source
[4] = target: Design 3947 L2: SGN-CD19a kappa light chain S131K_S176K; assay: SMCA: H1, L1, H2, L2 co-expressed, protein A, LC-MS
[5] = target: Design 3947 L2: SGN-CD19a kappa light chain S131K_S176K; assay: as above; remark: listed apart in the source
[6] = target: Design 3947 L2: SGN-CD19a kappa light chain S131K_S176K; assay: as above; remark: listed apart in the source
[7] = target: Design 3951 L2: SGN-CD19a kappa light chain S121K_S131K_S176K; assay: as above
[8] = target: Design 3951 L2: SGN-CD19a kappa light chain S121K_S131K_S176K; assay: as above; remark: listed apart in the source
[9] = target: Design 3951 L2: SGN-CD19a kappa light chain S121K_S131K_S176K; assay: as above; remark: listed apart in the source
[10] = target: Design 3954 L2: SGN-CD19a kappa light chain S121K_S176E_T178E; assay: as above
[11] = target: Design 3954 L2: SGN-CD19a kappa light chain S121K_S176E_T178E; assay: as above; remark: listed apart in the source
[12] = target: Design 3954 L2: SGN-CD19a kappa light chain S121K_S176E_T178E; assay: as above; remark: listed apart in the source
[13] = target: Design 3997 L1: CR8071 lambda light chain S122D_E124Q_T131R; assay: SMCA: H1, L1, H2, L2 co-expressed in CHO-3E7, protein A, LC-MS
[14] = target: Design 3997 L1: CR8071 lambda light chain S122D_E124Q_T131R; assay: SMCA, LC-MS
[15] = target: Pertuzumab kappa light chain V133G_S176D (L2), N-terminal HA tag; assay: LCCA, SPR of light chain tags
[16] = target: Pertuzumab kappa light chain V133G_S176D (L2), N-terminal HA tag; assay: LCCA, SPR of light chain tags; remark: listed apart in the source
[17] = target: CAT-2200 lambda light chain S176K_Y178R (L1), N-terminal FLAG tag; assay: LCCA, SPR of light chain tags
[18] = target: Pertuzumab kappa light chain V133G_S176D_T178D (L2), N-terminal HA tag; assay: LCCA, SPR of light chain tags
[19] = target: Pertuzumab kappa light chain V133G_S176D (L2), N-terminal HA tag; assay: LCCA, SPR of light chain tags; remark: listed apart in the source
[20] = target: CAT-2200 lambda light chain S176K_Y178L (L1), N-terminal FLAG tag; assay: LCCA, SPR of light chain tags
[21] = target: CAT-2200 lambda light chain S176K_Y178R (L1), N-terminal FLAG tag; assay: LCCA, SPR of light chain tags; remark: listed apart in the source
[22] = target: CAT-2200 lambda light chain S176K_Y178K (L1), N-terminal FLAG tag; assay: LCCA, SPR of light chain tags
[23] = target: CAT-2200 lambda light chain S176K_Y178R (L1), N-terminal FLAG tag; assay: LCCA, SPR of light chain tags; remark: listed apart in the source
[24] = target: Pertuzumab kappa light chain Q124E_V133D (L2), N-terminal HA tag; assay: LCCA, SPR of light chain tags
[25] = target: Pertuzumab kappa light chain V133D (L2), N-terminal HA tag; assay: LCCA, SPR of light chain tags
[26] = target: Pertuzumab kappa light chain Q124E_V133D (L2), N-terminal HA tag; assay: LCCA, SPR of light chain tags; remark: listed apart in the source
[27] = target: Pertuzumab kappa light chain V133D (L2), N-terminal HA tag; assay: LCCA, SPR of light chain tags; remark: listed apart in the source
[28] = target: Pertuzumab kappa light chain Q124E_V133D (L2), N-terminal HA tag; assay: LCCA, SPR of light chain tags; remark: listed apart in the source
[29] = target: CAT-2200 lambda light chain S176K_Y178L (L1), N-terminal FLAG tag; assay: LCCA, SPR of light chain tags; remark: listed apart in the source
[30] = target: CAT-2200 lambda light chain S176K_Y178R (L1), N-terminal FLAG tag; assay: LCCA, SPR of light chain tags; remark: listed apart in the source
[31] = target: CAT-2200 lambda light chain S176K_Y178K (L1), N-terminal FLAG tag; assay: LCCA, SPR of light chain tags; remark: listed apart in the source
[32] = target: Pertuzumab kappa light chain S176E_T178E (L2), N-terminal HA tag; assay: LCCA, SPR of light chain tags
[33] = target: Pertuzumab kappa light chain S176D_T178E (L2), N-terminal HA tag; assay: LCCA, SPR of light chain tags
[34] = target: Pertuzumab kappa light chain S131E_V133G_T178F (L2), N-terminal HA tag; assay: LCCA, SPR of light chain tags
[35] = target: Pertuzumab kappa light chain S131D_V133G_T178F (L2), N-terminal HA tag; assay: LCCA, SPR of light chain tags
[36] = target: Pertuzumab kappa light chain S176E_T178E (L2), N-terminal HA tag; assay: LCCA, SPR of light chain tags; remark: listed apart in the source
[37] = target: Pertuzumab kappa light chain S176D_T178E (L2), N-terminal HA tag; assay: LCCA, SPR of light chain tags; remark: listed apart in the source
[38] = target: Pertuzumab kappa light chain S131E_V133G_T178F (L2), N-terminal HA tag; assay: LCCA, SPR of light chain tags; remark: listed apart in the source
[39] = target: Pertuzumab kappa light chain S131D_V133G_T178F (L2), N-terminal HA tag; assay: LCCA, SPR of light chain tags; remark: listed apart in the source
[40] = target: CAT-2200 lambda light chain S176K_Y178L (L1), N-terminal FLAG tag; assay: LCCA, SPR of light chain tags; remark: listed apart in the source
[41] = target: CAT-2200 lambda light chain S176K_Y178R (L1), N-terminal FLAG tag; assay: LCCA, SPR of light chain tags; remark: listed apart in the source
[42] = target: Pertuzumab kappa light chain S176E_T178E (L2), N-terminal HA tag; assay: LCCA, SPR of light chain tags; remark: listed apart in the source
[43] = target: Pertuzumab kappa light chain S176D_T178E (L2), N-terminal HA tag; assay: LCCA, SPR of light chain tags; remark: listed apart in the source
[44] = target: Pertuzumab kappa light chain S131E_V133G_T178F (L2), N-terminal HA tag; assay: LCCA, SPR of light chain tags; remark: listed apart in the source
[45] = target: Pertuzumab kappa light chain S131D_V133G_T178F (L2), N-terminal HA tag; assay: LCCA, SPR of light chain tags; remark: listed apart in the source
[46] = target: Pertuzumab kappa light chain S176E_T178E (L2), N-terminal HA tag; assay: LCCA, SPR of light chain tags; remark: listed apart in the source
[47] = target: Pertuzumab kappa light chain S176D_T178E (L2), N-terminal HA tag; assay: LCCA, SPR of light chain tags; remark: listed apart in the source
[48] = target: CAT-2200 lambda light chain Y178K (L1), N-terminal FLAG tag; assay: LCCA, SPR of light chain tags
[49] = target: Pertuzumab wild-type kappa light chain with N-terminal FLAG tag; assay: SMCA: H1, H2, L1, L2 co-expressed in CHO-3E7
[50] = target: SGN-CD19a kappa light chain Q124K_V133A_T178R (L2 of design 3109, systems B and C); assay: SMCA LC-MS
[51] = target: SGN-CD19a kappa light chain Q124K_V133A_T178R (L2 of design 3109, systems B and C); assay: SMCA LC-MS; remark: listed apart in the source
[52] = target: SGN-CD19a kappa light chain Q124K_V133A_T178R (L2 of design 3109, systems B and C); assay: SMCA LC-MS; remark: listed apart in the source

## CR8071 heavy chain L143K (H1 of designs 3102 and 3109, system C)
[1]
  % H1L1 Pairing: 84%
[2]
  Change in % H1L1 Pairing with respect to wild type: 15.9%
[3]
  % H1L1 Pairing: 88.7%
  Change in % H1L1 Pairing with respect to wild type: 6.4%

## Design 3947 H2: SGN-CD19a heavy chain K145T_S186E
[4]
  Change in % H2L2 Pairing with respect to wild type: 16.1%
[5]
  % H2L2 Pairing: 94.5%
  Change in % H2L2 Pairing with respect to wild type: 23.2%
[6]
  % H2L2 Pairing: 70.3%

## Design 3951 H2: SGN-CD19a heavy chain K145T_S186E_K228D
[7]
  Change in % H2L2 Pairing with respect to wild type: 23.3%
[8]
  % H2L2 Pairing: 97.1%
  Change in % H2L2 Pairing with respect to wild type: 25.8%
[9]
  % H2L2 Pairing: 77.5%

## Design 3954 H2: SGN-CD19a heavy chain S188K_K228D
[10]
  Change in % H2L2 Pairing with respect to wild type: 7.6%
[11]
  % H2L2 Pairing: 98.7%
  Change in % H2L2 Pairing with respect to wild type: 19.1%
[12]
  % H2L2 Pairing: 61.8%

## Design 3997 H1: CR8071 heavy chain A125R_L143E_K145T_Q179E
[13]
  % H1L1 Pairing: 96%
[14]
  Change in % H1L1 Pairing with respect to wild type: 27.9%

## Pertuzumab Fab heavy chain L124R (H2), ABD2-His6 tagged
[15]
  H2L2:H2L1 normalized median ratio: 74%
  H2L2:H2L1 normalized median scalar value ln(r1/f1): 1.06
[16]
  H2L2:H2L1 normalized median ratio: 84%
  H2L2:H2L1 normalized median scalar value ln(r1/f1): 1.63
[17]
  H2L2:H2L1 normalized median ratio: 39%
[18]
  H2L2:H2L1 normalized median ratio: 61%
  H2L2:H2L1 normalized median scalar value ln(r1/f1): 0.43
[19]
  H2L2:H2L1 normalized median ratio: 85%
  H2L2:H2L1 normalized median scalar value ln(r1/f1): 1.75
[20]
  H2L2:H2L1 normalized median ratio: 26%
[21]
  H2L2:H2L1 normalized median ratio: 15%
[22]
  H2L2:H2L1 normalized median ratio: 16%

## Pertuzumab Fab heavy chain L143K (H2), ABD2-His6 tagged
[23]
  H2L2:H2L1 normalized median ratio: 20%
[24]
  H2L2:H2L1 normalized median ratio: 93%
  H2L2:H2L1 normalized median scalar value ln(r1/f1): 2.64
[25]
  H2L2:H2L1 normalized median ratio: 77%
  H2L2:H2L1 normalized median scalar value ln(r1/f1): 1.2
[26]
  H2L2:H2L1 normalized median ratio: 86%
  H2L2:H2L1 normalized median scalar value ln(r1/f1): 1.78
[27]
  H2L2:H2L1 normalized median ratio: 80%
  H2L2:H2L1 normalized median scalar value ln(r1/f1): 1.39
[28]
  H2L2:H2L1 normalized median ratio: 88%
  H2L2:H2L1 normalized median scalar value ln(r1/f1): 1.95
[21]
  H2L2:H2L1 normalized median ratio: 12%
[22]
  H2L2:H2L1 normalized median ratio: 14%

## Pertuzumab Fab heavy chain S188K (H2), ABD2-His6 tagged
[29]
  H2L2:H2L1 normalized median ratio: 15%
[30]
  H2L2:H2L1 normalized median ratio: 11%
[31]
  H2L2:H2L1 normalized median ratio: 14%
[32]
  H2L2:H2L1 normalized median ratio: 95%
  H2L2:H2L1 normalized median scalar value ln(r1/f1): 2.96
[33]
  H2L2:H2L1 normalized median ratio: 86%
  H2L2:H2L1 normalized median scalar value ln(r1/f1): 1.78
[34]
  H2L2:H2L1 normalized median scalar value ln(r1/f1): 2.17
[35]
  H2L2:H2L1 normalized median ratio: 85%
  H2L2:H2L1 normalized median scalar value ln(r1/f1): 1.77
[36]
  H2L2:H2L1 normalized median scalar value ln(r1/f1): 2.75
[37]
  H2L2:H2L1 normalized median ratio: 86%
  H2L2:H2L1 normalized median scalar value ln(r1/f1): 1.83
[38]
  H2L2:H2L1 normalized median scalar value ln(r1/f1): 2.77
[39]
  H2L2:H2L1 normalized median ratio: 86%
  H2L2:H2L1 normalized median scalar value ln(r1/f1): 1.85
[40]
  H2L2:H2L1 normalized median ratio: 5%
[41]
  H2L2:H2L1 normalized median ratio: 5%
[42]
  H2L2:H2L1 normalized median ratio: 95%
  H2L2:H2L1 normalized median scalar value ln(r1/f1): 2.87
[43]
  H2L2:H2L1 normalized median ratio: 90%
  H2L2:H2L1 normalized median scalar value ln(r1/f1): 2.16
[44]
  H2L2:H2L1 normalized median scalar value ln(r1/f1): 2.35
[45]
  H2L2:H2L1 normalized median ratio: 89%
  H2L2:H2L1 normalized median scalar value ln(r1/f1): 2.09
[46]
  H2L2:H2L1 normalized median scalar value ln(r1/f1): 2.67
[47]
  H2L2:H2L1 normalized median ratio: 80%
  H2L2:H2L1 normalized median scalar value ln(r1/f1): 1.41
[48]
  H2L2:H2L1 normalized median ratio: 20%
[20]
  H2L2:H2L1 normalized median ratio: 14%
[21]
  H2L2:H2L1 normalized median ratio: 9%
[22]
  H2L2:H2L1 normalized median ratio: 14%

## Pertuzumab wild-type full-length IgG1 heavy chain (heterodimeric Fc) (from UniProt P0DOX5 2-448)
[49]
  % H2L2 Pairing (over all H2 species): 79.9%

## SGN-CD19a heavy chain L124W_L143E_K145T_Q179E (H2 of design 3109, systems B and C)
[50]
  Change in % H2L2 Pairing with respect to wild type: 28.3%
[51]
  % H2L2 Pairing: 99.6%
[52]
  % H2L2 Pairing: 97.1%
  Change in % H2L2 Pairing with respect to wild type: 42.9%
